Results reported in publication PMC9404054, “Efficient screening for 8-oxoguanine DNA glycosylase binding aptamers via capillary electrophoresis”.

B1: OGG1-Apt 4 (ssDNA)
DNA: AGCAGCACAGAGGTCAGATGGCGAAGCGTACCGGCTACCCAGTGACAGTCGCCGTGGGTCCCTATGCGTGCTACCGTGAA
B2: OGG1-Apt 1 (ssDNA)
DNA: AGCAGCACAGAGGTCAGATGGCCACATTAGTCTCACCACTACCTGCGTACCTACCGCCGCCCTATGCGTGCTACCGTGAA
B3: OGG1-Apt 6 (ssDNA)
DNA: AGCAGCACAGAGGTCAGATGCCGATCGTTGTTCCCGATCAAGATGGGGAATCTCAGTCGCCCTATGCGTGCTACCGTGAA
B4: OGG1-Apt 2 (ssDNA)
DNA: AGCAGCACAGAGGTCAGATGTTGATGGCAGGTATTGCTAGGTCTACATGGAACTTGTTAACCTATGCGTGCTACCGTGAA

Columns and labels:
[1] = target: T1, 8-oxoguanine DNA glycosylase (OGG1) (UniProt O15527 1-345); test: capillary electrophoresis (NECEEM); 0.2 uM aptamer, 5.0 uM OGG1, n=3; abstract gives range 1.71-2.64 uM for the top three candidates; CE in fused-silica capillary (75 um i.d. x 50.2 cm, 40 cm effective); borate reagents listed; 15 min incubation stated for the selection; buffer composition, pH and temperature not in the material; conditions: protein: commercial; (library is FAM labelled)
T1 sequence (O15527 whole entry, the tested form may be a part): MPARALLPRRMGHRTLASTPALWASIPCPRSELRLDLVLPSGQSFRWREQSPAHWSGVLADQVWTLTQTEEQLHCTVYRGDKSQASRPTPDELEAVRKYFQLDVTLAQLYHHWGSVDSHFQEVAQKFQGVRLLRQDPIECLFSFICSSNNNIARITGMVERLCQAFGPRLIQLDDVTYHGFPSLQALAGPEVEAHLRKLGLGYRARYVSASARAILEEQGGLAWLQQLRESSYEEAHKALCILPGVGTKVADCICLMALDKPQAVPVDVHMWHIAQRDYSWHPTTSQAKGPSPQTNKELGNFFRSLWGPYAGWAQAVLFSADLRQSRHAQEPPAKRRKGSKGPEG

[2] = target: T1, 8-oxoguanine DNA glycosylase (OGG1); test: capillary electrophoresis (NECEEM); 0.2 uM aptamer, 5.0 uM OGG1, n=3; CE in fused-silica capillary (75 um i.d. x 50.2 cm, 40 cm effective); borate reagents listed; 15 min incubation stated for the selection; buffer composition, pH and temperature not in the material; conditions: protein: commercial; (library is FAM labelled)

| Binder | Kd [1] [nM] | Kd [2] [nM] |
| --- | --- | --- |
| B1 | 2800 ± 200 |  |
| B2 |  | 1700 ± 100 |
| B3 |  | 1800 ± 100 |
| B4 |  | 2600 ± 200 |
